# Measured values as given in patent US20100248978A1, “METHOD FOR IDENTIFYING THE INTERACTION PARTNER OF AN ACTIVE AGENT” (Bayer Cropscience AG, priority 2007, published 2010).
# T1: recombinant, His-tagged HPPD (p-hydroxyphenylpyruvate dioxygenase) (Arabidopsis thaliana, UniProt P93836)
# T1 construct: His-tag
# T1 sequence (P93836 1-445): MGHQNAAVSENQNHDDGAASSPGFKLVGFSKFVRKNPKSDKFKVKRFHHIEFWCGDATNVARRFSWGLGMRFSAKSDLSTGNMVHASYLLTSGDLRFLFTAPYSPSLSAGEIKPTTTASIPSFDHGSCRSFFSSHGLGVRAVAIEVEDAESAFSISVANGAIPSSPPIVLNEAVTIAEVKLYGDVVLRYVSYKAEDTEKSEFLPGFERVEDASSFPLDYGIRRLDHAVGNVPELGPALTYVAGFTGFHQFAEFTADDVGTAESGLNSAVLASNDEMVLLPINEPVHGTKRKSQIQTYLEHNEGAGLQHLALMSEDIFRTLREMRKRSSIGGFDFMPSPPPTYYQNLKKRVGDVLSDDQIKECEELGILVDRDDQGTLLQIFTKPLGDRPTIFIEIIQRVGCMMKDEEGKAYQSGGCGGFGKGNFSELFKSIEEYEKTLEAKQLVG
# T2: recombinant HPPD (Arabidopsis thaliana, UniProt P93836)
# T2 construct: His-tag
# T2 sequence (P93836 1-445): T1 sequence (P93836 1-445)
# T3: endogenous HPPD (Arabidopsis thaliana, UniProt P93836)
# T3 construct: pull down endogenous HPPD in protein extract, i.e. no recombinant protein was added; from tissue; host or cells: protein extract from freeze-dried powder of Arabidopsis thaliana
# T3 sequence (P93836 1-445): T1 sequence (P93836 1-445)
# B1: S116D-C8: monoclonal RNA aptamer, specific ligand to HPPD from competitive SELEX S116D, SEQ. ID. No. 5 (nucleic acid)
# chain: GGGAGAGGAGGGAGAUAGAUAUCAAUAAAGUCGGUGACACCACGCAUCCAAAUACCGGUACGCGGAACUAAUAGUUUGUCCUCACGGUGGAUGG
# modifications: RNA, backbone not given here
# B2: S116B-C4: monoclonal RNA aptamer, specific ligand to HPPD from competitive SELEX S116B, SEQ. ID. No. 4 (nucleic acid)
# chain: GGGAGAGGAGGGAGAUAGAUAUCAAGUAACAAAUGAUACUUUCCAAGCAUAAUUCAUUCGCAGCCCGAAUUAAGUUUGUCCUCACGGUGGAUGG
# modifications: RNA, backbone not given here
# B3: S115A-C1: monoclonal RNA aptamer binding HPPD from classical SELEX run S115A, SEQ. ID. No. 2 (nucleic acid)
# chain: GGGAGAGGAGGGAGAUAGAUAUCAACAAUGACUAGCCGUGUAAGUGGUCUCGUACAUCCGAAAAAGACGACCCAGUUUGUCCUCACGGUGGAUGG
# modifications: listed as RNA, chemistry not given here
# B4: S116C-C18 (nucleic acid)
# DNA: GGGAGAGGAGGGAGAUAGAUAUCAAUAUCGCCACGUUACGAGUACCAAGCUUUAUUUCCGCAGCCCGAUAGAGUUUGUCCUCACGGUGGAUGG
# modifications: chemistry not given here
# Legend:
# [1] = molecular target: T1, recombinant, His-tagged HPPD (p-hydroxyphenylpyruvate dioxygenase); assay: nitrocellulose filter retention assay, binding of radioactively labelled RNA to recombinant HPPD; settings: monoclonal aptamer, recombinant HPPD at various concentrations; read-out: dissociation constant
# Procedure: Recombinant, His-tagged HPPD was targeted as an interaction partner in two SELEX runs, referred to as S115A and S115E, which comprised 12 and 9 cycles, respectively. Briefly, the protein was biotinylated and exposed to the RNA library with a 47 nucleotide random region (N47α) in 20 mM Hepes (pH 7.4), 150 mM NaCl, 3 mM MgCl2, and 1 mg/ml BSA (in vitro selection 5115A) or 20 mM Hepes (pH 7.4), 150 mM NaCl, 3 mM MgCl2, 10% DMSO and 1 mg/ml BSA (in vitro selection S115B). The library N47α consists of a random region of 47 nucleotides which is flanked by fixed sequences at the 5′ and 3′ end that serve as primer annealing sites for the amplification of the selected aptamer sequences via reverse transcription and PCR. The 5′ region additionally contains the sequence of an T7-RNA polymerase promoter that enables the transcription of the PCR DNA template into RNA. The sense sequence of the PCR DNA template is “5″-[…]-N47-[…]-3′ (SEQ. ID No. 1). The T7-RNA polymerase promoter is underlined. The double stranded DNA template was used to transcribe the initial RNA library. The procedures to produce an RNA library and to perform a SELEX experiment are well known to a person skilled in the art and described in, e.g., Methods in Enzymology, Vol 267, Combinatorial Chemistry (1996), Abelson J. N. and Simon M. I., eds. Academic Press, San Diego. Subsequently, the complexes between target and RNA were captured on streptavidin-coated beads and unbound RNA was removed by washing with binding buffer. […] RNA bound to the target protein is retained within the complex on the filter and was quantified by a phosphoimager. Values were calculated as the percentage of total radiolabeled RNA in the reaction.
# (§1) The dissociation constant (FIG. 4B) was determined to be 128±11 nM. consistent with strong binding to S115A-C1 to recombinant HPPD.
# To determine the binding properties of individual aptamers isolated as part of the mixture of aptamers binding to HPPD in the previous example, aptamers were cloned into a vector, and 24 clones were sequenced. For each experiment out of S116B, S116C and S116D, one of the cloned aptamers subsequently identified as specific ligands to HPPD (termed S116C-C18 (5″-GGGAGAGGAGGGAGAUAGAUAUCAAUAUCGCCACGUUACGAGUACCAAGCUULJ […]-3″ (SEQ. ID. No. 3)), S116B-C4 (5′-[…] UGG-3′ (SEQ. ID. No. 4)) and S116D-C8 (5″-GGGAGAGGAGGG […]-3′) (SEQ. ID. No. 5)) was analysed with respect to the thermodynamics of the binding. […] The dissociation constants determined for S116B-C4, S116C-C18 and S116D-C8, were 740±39, 832±39 and 120±9 nM, respectively, consistent with the view that decreasing the concentration of the interaction partner to 2 pM (experiment S116D) actually yield the most tightly binding aptamer.
# [2] = molecular target: T2, recombinant HPPD; assay: pull down of recombinant HPPD with biotinylated aptamers immobilised on streptavidin beads (SDS-PAGE); assay type: binding; settings: for pull down of HPPD (protein band on SDS-PAGE): 10 μg of HPPD, in the absence of protein extract
# Description: To confirm the concept that aptamers isolated using the competitive SELEX approach can be used to identify the interaction partner of interest, the two tightly binding aptamers S116C-C18 and S116D-C8, henceforth referred to as anti-HPPD aptamers, were biotinylated by in vitro transcription, using the appropriate DNA template and biotinylated ApG starter nucleotides (IBA, Göttingen) (Pitulle C. et al. (1992), Gene, 112(1):101-5; Gaur R. K. et al. (2004), Methods Mol. Biol. 252:9-17) and immobilised on paramagnetic streptavidin (SA) beads.
# By contrast, the protein band assigned to HPPD was not visible when negative controls (beads only and N47α immobilised on beads) were used.
# [3] = molecular target: T3, endogenous HPPD; assay: pull down of endogenous HPPD from protein extract with immobilised aptamer (SDS-PAGE); assay type: binding; settings: protein extract only as the source of HPPD, no recombinant protein added
# Procedure: For a realistic proof of principle scenario representing attempts to identify an unknown interaction partner, biotinylated aptamer S116D-C8 was immobilised and used in attempts to pull down endogenous HPPD in protein extract, i.e. no recombinant protein was added. Again, appropriate controls such as N47α as a negative control and S116D-C8 together with recombinant HPPD were included.
# [4] = test system: control proteins; assay: nitrocellulose filter retention assay with control proteins as negative controls; assay type: binding; settings: HPPD replaced by an equivalent concentration of control proteins
# Procedure: Recombinant, His-tagged HPPD was targeted as an interaction partner in two SELEX runs, referred to as S115A and S115E, which comprised 12 and 9 cycles, respectively. Briefly, the protein was biotinylated and exposed to the RNA library with a 47 nucleotide random region (N47α) in 20 mM Hepes (pH 7.4), 150 mM NaCl, 3 mM MgCl2, and 1 mg/ml BSA (in vitro selection 5115A) or 20 mM Hepes (pH 7.4), 150 mM NaCl, 3 mM MgCl2, 10% DMSO and 1 mg/ml BSA (in vitro selection S115B). The library N47α consists of a random region of 47 nucleotides which is flanked by fixed sequences at the 5′ and 3′ end that serve as primer annealing sites for the amplification of the selected aptamer sequences via reverse transcription and PCR. The 5′ region additionally contains the sequence of an T7-RNA polymerase promoter that enables the transcription of the PCR DNA template into RNA. The sense sequence of the PCR DNA template is “5″-[…]-N47-[…]-3′ (SEQ. ID No. 1). The T7-RNA polymerase promoter is underlined. The double stranded DNA template was used to transcribe the initial RNA library. […] RNA bound to the target protein is retained within the complex on the filter and was quantified by a phosphoimager. Values were calculated as the percentage of total radiolabeled RNA in the reaction.
# as §1
Molecule,Kd [1],pull down of HPPD (protein band on SDS-PAGE) [2],"pull down of recombinant HPPD (protein band on SDS-PAGE) ([2]; different amounts of HPPD, in the presence of increasing amounts of PE)",pull down of endogenous HPPD (protein band on SDS-PAGE) [3],binding to / retention by control proteins [4]
B1,0.12 ± 0.009 µM,could be used to pull down HPPD,could be used to purify conveniently detectable amounts of HPPD,a protein band was visually detectable,
B2,0.74 ± 0.039 µM,,,,
B3,0.128 ± 0.011 µM,,,,not by any of the control proteins
B4,0.832 ± 0.039 µM,could be used to pull down HPPD,,,
